Sequences and labels used below:
T1: FcγRIIa R (human, UniProt P12318 34-217)
T1 construct: extracellular domain; also called FcgRIIa R type; 2aR
T1 sequence (looked up): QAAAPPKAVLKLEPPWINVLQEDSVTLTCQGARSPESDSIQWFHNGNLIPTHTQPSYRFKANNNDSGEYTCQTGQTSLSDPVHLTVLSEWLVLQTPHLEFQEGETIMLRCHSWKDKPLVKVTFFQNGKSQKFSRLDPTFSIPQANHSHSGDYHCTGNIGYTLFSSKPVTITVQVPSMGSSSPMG

B1: GpH7-B3 variant N325_01G/GpL16-k0 (antibody, human IgG1, kappa)
heavy: not shown
light: DIVMTQSPLSLPVTPGEPASISCQASESLVHSNRNTYLHWYLQKPGQSPQLLIYKVSNRFSGVPDRFSGSGSGTDFTLKISRVEAEDVGVYYCSQNTHVPPTFGQGTKVEIERTVAAPSVFIFPPSDEQLKSGTASVVCLLNNFYPREAKVQWKVDNALQSGNSQESVTEQDSKDSTYSLSSTLTLSKADYEKHKVYACEVTHQGLSSPVTKSFNRGEC
notes: also called Ho Ab N325_01G
B2: GpH7-B3 variant A330_11K/GpL16-k0 (antibody, human IgG1, kappa)
heavy: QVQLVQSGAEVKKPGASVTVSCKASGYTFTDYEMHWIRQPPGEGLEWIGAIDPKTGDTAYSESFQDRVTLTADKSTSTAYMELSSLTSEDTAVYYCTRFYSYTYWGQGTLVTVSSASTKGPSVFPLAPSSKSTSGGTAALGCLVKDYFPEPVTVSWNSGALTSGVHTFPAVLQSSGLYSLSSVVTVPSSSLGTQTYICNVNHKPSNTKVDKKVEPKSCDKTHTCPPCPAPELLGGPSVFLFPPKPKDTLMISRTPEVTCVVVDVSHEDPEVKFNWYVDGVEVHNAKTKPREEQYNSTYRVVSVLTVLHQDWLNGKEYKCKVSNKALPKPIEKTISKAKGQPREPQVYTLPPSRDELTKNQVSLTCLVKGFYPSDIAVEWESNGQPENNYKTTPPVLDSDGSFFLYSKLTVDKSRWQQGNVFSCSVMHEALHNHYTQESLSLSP
light: DIVMTQSPLSLPVTPGEPASISCQASESLVHSNRNTYLHWYLQKPGQSPQLLIYKVSNRFSGVPDRFSGSGSGTDFTLKISRVEAEDVGVYYCSQNTHVPPTFGQGTKVEIERTVAAPSVFIFPPSDEQLKSGTASVVCLLNNFYPREAKVQWKVDNALQSGNSQESVTEQDSKDSTYSLSSTLTLSKADYEKHKVYACEVTHQGLSSPVTKSFNRGEC
notes: also called Ho Ab A330_11K
B3: GpH7-B3 variant E333_04F/GpL16-k0 (antibody, human IgG1, kappa)
heavy: not shown
light: DIVMTQSPLSLPVTPGEPASISCQASESLVHSNRNTYLHWYLQKPGQSPQLLIYKVSNRFSGVPDRFSGSGSGTDFTLKISRVEAEDVGVYYCSQNTHVPPTFGQGTKVEIERTVAAPSVFIFPPSDEQLKSGTASVVCLLNNFYPREAKVQWKVDNALQSGNSQESVTEQDSKDSTYSLSSTLTLSKADYEKHKVYACEVTHQGLSSPVTKSFNRGEC
notes: also called Ho Ab E333_04F
B4: GpH7-B3 variant E333_07I/GpL16-k0 (antibody, human IgG1, kappa)
heavy: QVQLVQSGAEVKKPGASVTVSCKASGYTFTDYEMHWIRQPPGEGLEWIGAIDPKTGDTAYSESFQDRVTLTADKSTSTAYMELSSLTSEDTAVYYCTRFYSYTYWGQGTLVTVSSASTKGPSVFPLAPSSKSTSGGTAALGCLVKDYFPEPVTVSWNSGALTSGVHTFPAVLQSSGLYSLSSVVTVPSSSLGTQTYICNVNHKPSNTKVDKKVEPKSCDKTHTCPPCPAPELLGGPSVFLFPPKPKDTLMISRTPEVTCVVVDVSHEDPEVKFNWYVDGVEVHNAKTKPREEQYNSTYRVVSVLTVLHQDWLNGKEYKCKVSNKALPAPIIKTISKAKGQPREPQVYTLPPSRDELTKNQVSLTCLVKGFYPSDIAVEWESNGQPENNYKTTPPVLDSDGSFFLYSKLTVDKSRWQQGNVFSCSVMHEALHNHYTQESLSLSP
light: DIVMTQSPLSLPVTPGEPASISCQASESLVHSNRNTYLHWYLQKPGQSPQLLIYKVSNRFSGVPDRFSGSGSGTDFTLKISRVEAEDVGVYYCSQNTHVPPTFGQGTKVEIERTVAAPSVFIFPPSDEQLKSGTASVVCLLNNFYPREAKVQWKVDNALQSGNSQESVTEQDSKDSTYSLSSTLTLSKADYEKHKVYACEVTHQGLSSPVTKSFNRGEC
notes: also called Ho Ab E333_07I
B5: GpH7-B3 variant A327_10E/GpL16-k0 (antibody, human IgG1, kappa)
heavy: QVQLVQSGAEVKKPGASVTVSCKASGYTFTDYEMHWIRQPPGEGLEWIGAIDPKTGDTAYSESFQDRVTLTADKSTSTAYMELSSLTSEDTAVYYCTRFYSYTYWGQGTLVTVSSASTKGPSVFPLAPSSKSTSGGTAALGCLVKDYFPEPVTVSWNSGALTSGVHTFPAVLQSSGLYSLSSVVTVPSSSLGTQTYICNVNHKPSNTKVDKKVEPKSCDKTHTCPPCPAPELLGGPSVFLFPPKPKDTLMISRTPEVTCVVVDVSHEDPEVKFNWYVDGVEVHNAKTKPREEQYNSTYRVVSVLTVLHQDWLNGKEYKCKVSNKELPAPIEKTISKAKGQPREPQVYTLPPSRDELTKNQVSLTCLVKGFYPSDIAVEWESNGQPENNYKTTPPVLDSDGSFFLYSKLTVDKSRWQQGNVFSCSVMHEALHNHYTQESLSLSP
light: DIVMTQSPLSLPVTPGEPASISCQASESLVHSNRNTYLHWYLQKPGQSPQLLIYKVSNRFSGVPDRFSGSGSGTDFTLKISRVEAEDVGVYYCSQNTHVPPTFGQGTKVEIERTVAAPSVFIFPPSDEQLKSGTASVVCLLNNFYPREAKVQWKVDNALQSGNSQESVTEQDSKDSTYSLSSTLTLSKADYEKHKVYACEVTHQGLSSPVTKSFNRGEC
notes: also called Ho Ab A327_10E
B6: GpH7-B3 variant E333_15Y/GpL16-k0 (antibody, human IgG1, kappa)
heavy: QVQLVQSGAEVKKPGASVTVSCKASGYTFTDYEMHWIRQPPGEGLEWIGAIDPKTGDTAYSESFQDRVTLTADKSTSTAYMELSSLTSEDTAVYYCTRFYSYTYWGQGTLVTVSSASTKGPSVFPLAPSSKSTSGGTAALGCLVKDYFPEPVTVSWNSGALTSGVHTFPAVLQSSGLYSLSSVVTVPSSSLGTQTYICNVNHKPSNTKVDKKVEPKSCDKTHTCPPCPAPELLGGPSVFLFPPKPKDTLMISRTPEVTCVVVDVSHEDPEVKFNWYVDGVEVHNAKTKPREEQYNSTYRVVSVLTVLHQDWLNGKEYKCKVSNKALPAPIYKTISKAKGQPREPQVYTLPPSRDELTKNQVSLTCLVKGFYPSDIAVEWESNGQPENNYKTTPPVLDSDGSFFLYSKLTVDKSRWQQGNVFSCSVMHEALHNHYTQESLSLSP
light: DIVMTQSPLSLPVTPGEPASISCQASESLVHSNRNTYLHWYLQKPGQSPQLLIYKVSNRFSGVPDRFSGSGSGTDFTLKISRVEAEDVGVYYCSQNTHVPPTFGQGTKVEIERTVAAPSVFIFPPSDEQLKSGTASVVCLLNNFYPREAKVQWKVDNALQSGNSQESVTEQDSKDSTYSLSSTLTLSKADYEKHKVYACEVTHQGLSSPVTKSFNRGEC
notes: also called Ho Ab E333_15Y
B7: GpH7-B3 variant G237_04F/GpL16-k0 (antibody, human IgG1, kappa)
heavy: not shown
light: DIVMTQSPLSLPVTPGEPASISCQASESLVHSNRNTYLHWYLQKPGQSPQLLIYKVSNRFSGVPDRFSGSGSGTDFTLKISRVEAEDVGVYYCSQNTHVPPTFGQGTKVEIERTVAAPSVFIFPPSDEQLKSGTASVVCLLNNFYPREAKVQWKVDNALQSGNSQESVTEQDSKDSTYSLSSTLTLSKADYEKHKVYACEVTHQGLSSPVTKSFNRGEC
notes: also called Ho Ab G237_04F
B8: GpH7-B3 variant G237_06M/GpL16-k0 (antibody, human IgG1, kappa)
heavy: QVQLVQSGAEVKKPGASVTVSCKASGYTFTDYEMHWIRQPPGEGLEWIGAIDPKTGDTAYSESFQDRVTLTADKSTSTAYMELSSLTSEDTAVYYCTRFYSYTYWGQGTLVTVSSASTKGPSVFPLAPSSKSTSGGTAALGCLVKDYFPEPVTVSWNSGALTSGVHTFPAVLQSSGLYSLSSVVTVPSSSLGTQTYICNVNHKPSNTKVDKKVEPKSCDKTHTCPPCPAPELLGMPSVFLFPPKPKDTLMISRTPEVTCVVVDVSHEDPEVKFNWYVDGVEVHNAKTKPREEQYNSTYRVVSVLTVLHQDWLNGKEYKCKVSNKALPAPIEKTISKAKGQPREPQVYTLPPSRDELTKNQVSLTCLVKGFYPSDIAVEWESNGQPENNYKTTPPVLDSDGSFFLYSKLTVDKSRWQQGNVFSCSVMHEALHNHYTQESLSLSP
light: DIVMTQSPLSLPVTPGEPASISCQASESLVHSNRNTYLHWYLQKPGQSPQLLIYKVSNRFSGVPDRFSGSGSGTDFTLKISRVEAEDVGVYYCSQNTHVPPTFGQGTKVEIERTVAAPSVFIFPPSDEQLKSGTASVVCLLNNFYPREAKVQWKVDNALQSGNSQESVTEQDSKDSTYSLSSTLTLSKADYEKHKVYACEVTHQGLSSPVTKSFNRGEC
notes: also called Ho Ab G237_06M
B9: GpH7-B3 variant A330_19Q/GpL16-k0 (antibody, human IgG1, kappa)
heavy: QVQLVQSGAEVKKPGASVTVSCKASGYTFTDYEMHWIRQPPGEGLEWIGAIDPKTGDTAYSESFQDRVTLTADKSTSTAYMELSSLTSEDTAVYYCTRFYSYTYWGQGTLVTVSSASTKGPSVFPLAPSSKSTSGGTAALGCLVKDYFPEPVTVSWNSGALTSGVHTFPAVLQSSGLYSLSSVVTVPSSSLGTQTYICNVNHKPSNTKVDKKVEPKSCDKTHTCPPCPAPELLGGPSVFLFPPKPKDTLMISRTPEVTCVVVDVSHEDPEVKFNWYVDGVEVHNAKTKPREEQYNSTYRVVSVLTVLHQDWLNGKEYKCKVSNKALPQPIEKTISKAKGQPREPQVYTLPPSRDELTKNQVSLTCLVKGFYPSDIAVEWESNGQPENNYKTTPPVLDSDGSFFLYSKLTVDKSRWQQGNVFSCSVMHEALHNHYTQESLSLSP
light: DIVMTQSPLSLPVTPGEPASISCQASESLVHSNRNTYLHWYLQKPGQSPQLLIYKVSNRFSGVPDRFSGSGSGTDFTLKISRVEAEDVGVYYCSQNTHVPPTFGQGTKVEIERTVAAPSVFIFPPSDEQLKSGTASVVCLLNNFYPREAKVQWKVDNALQSGNSQESVTEQDSKDSTYSLSSTLTLSKADYEKHKVYACEVTHQGLSSPVTKSFNRGEC
notes: also called Ho Ab A330_19Q
B10: GpH7-B3 variant G236_14T/GpL16-k0 (antibody, human IgG1, kappa)
heavy: not shown
light: DIVMTQSPLSLPVTPGEPASISCQASESLVHSNRNTYLHWYLQKPGQSPQLLIYKVSNRFSGVPDRFSGSGSGTDFTLKISRVEAEDVGVYYCSQNTHVPPTFGQGTKVEIERTVAAPSVFIFPPSDEQLKSGTASVVCLLNNFYPREAKVQWKVDNALQSGNSQESVTEQDSKDSTYSLSSTLTLSKADYEKHKVYACEVTHQGLSSPVTKSFNRGEC
notes: also called Ho Ab G236_14T
B11: GpH7-B3 variant A330_01G/GpL16-k0 (antibody, human IgG1, kappa)
heavy: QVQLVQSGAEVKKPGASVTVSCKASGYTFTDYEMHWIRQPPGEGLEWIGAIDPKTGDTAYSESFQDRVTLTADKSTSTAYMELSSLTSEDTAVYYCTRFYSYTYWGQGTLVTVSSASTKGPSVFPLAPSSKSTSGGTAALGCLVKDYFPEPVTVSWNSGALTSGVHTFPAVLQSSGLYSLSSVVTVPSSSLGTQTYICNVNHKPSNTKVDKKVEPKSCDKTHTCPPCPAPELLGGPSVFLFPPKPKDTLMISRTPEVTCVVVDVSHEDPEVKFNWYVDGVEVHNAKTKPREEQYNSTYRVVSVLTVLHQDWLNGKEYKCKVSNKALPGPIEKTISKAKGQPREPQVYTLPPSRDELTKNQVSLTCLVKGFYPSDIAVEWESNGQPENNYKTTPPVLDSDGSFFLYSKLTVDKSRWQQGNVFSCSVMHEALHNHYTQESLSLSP
light: DIVMTQSPLSLPVTPGEPASISCQASESLVHSNRNTYLHWYLQKPGQSPQLLIYKVSNRFSGVPDRFSGSGSGTDFTLKISRVEAEDVGVYYCSQNTHVPPTFGQGTKVEIERTVAAPSVFIFPPSDEQLKSGTASVVCLLNNFYPREAKVQWKVDNALQSGNSQESVTEQDSKDSTYSLSSTLTLSKADYEKHKVYACEVTHQGLSSPVTKSFNRGEC
notes: also called Ho Ab A330_01G
B12: GpH7-B3 variant A330_15Y/GpL16-k0 (antibody, human IgG1, kappa)
heavy: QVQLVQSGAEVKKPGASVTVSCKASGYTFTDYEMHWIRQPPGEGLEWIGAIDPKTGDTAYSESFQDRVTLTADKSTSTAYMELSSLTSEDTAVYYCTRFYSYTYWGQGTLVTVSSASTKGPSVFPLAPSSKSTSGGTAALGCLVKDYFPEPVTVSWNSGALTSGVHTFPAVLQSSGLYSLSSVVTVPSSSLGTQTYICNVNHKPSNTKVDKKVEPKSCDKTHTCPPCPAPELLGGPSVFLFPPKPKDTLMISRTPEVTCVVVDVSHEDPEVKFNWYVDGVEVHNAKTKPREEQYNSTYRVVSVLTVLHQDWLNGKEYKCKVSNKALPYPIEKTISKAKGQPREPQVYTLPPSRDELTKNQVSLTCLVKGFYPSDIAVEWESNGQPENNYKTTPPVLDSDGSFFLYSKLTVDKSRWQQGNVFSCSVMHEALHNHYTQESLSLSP
light: DIVMTQSPLSLPVTPGEPASISCQASESLVHSNRNTYLHWYLQKPGQSPQLLIYKVSNRFSGVPDRFSGSGSGTDFTLKISRVEAEDVGVYYCSQNTHVPPTFGQGTKVEIERTVAAPSVFIFPPSDEQLKSGTASVVCLLNNFYPREAKVQWKVDNALQSGNSQESVTEQDSKDSTYSLSSTLTLSKADYEKHKVYACEVTHQGLSSPVTKSFNRGEC
notes: also called Ho Ab A330_15Y
B13: GpH7-B3 variant E333_05P/GpL16-k0 (antibody, human IgG1, kappa)
heavy: not shown
light: DIVMTQSPLSLPVTPGEPASISCQASESLVHSNRNTYLHWYLQKPGQSPQLLIYKVSNRFSGVPDRFSGSGSGTDFTLKISRVEAEDVGVYYCSQNTHVPPTFGQGTKVEIERTVAAPSVFIFPPSDEQLKSGTASVVCLLNNFYPREAKVQWKVDNALQSGNSQESVTEQDSKDSTYSLSSTLTLSKADYEKHKVYACEVTHQGLSSPVTKSFNRGEC
notes: also called Ho Ab E333_05P
B14: GpH7-B3 variant A330_12R/GpL16-k0 (antibody, human IgG1, kappa)
heavy: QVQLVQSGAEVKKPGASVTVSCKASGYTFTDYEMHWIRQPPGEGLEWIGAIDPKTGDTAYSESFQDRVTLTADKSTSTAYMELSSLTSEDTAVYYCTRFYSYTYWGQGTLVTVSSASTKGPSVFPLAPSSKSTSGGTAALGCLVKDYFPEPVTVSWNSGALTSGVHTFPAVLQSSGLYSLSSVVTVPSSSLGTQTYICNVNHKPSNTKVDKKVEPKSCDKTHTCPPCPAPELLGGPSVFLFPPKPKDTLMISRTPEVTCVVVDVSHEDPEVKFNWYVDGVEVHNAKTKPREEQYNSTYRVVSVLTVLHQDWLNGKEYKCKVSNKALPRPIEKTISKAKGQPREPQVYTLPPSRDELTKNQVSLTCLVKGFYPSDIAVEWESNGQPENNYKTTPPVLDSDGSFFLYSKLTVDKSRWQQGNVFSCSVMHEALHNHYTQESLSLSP
light: DIVMTQSPLSLPVTPGEPASISCQASESLVHSNRNTYLHWYLQKPGQSPQLLIYKVSNRFSGVPDRFSGSGSGTDFTLKISRVEAEDVGVYYCSQNTHVPPTFGQGTKVEIERTVAAPSVFIFPPSDEQLKSGTASVVCLLNNFYPREAKVQWKVDNALQSGNSQESVTEQDSKDSTYSLSSTLTLSKADYEKHKVYACEVTHQGLSSPVTKSFNRGEC
notes: also called Ho Ab A330_12R
B15: GpH7-B3 variant E333_08L/GpL16-k0 (antibody, human IgG1, kappa)
heavy: not shown
light: DIVMTQSPLSLPVTPGEPASISCQASESLVHSNRNTYLHWYLQKPGQSPQLLIYKVSNRFSGVPDRFSGSGSGTDFTLKISRVEAEDVGVYYCSQNTHVPPTFGQGTKVEIERTVAAPSVFIFPPSDEQLKSGTASVVCLLNNFYPREAKVQWKVDNALQSGNSQESVTEQDSKDSTYSLSSTLTLSKADYEKHKVYACEVTHQGLSSPVTKSFNRGEC
notes: also called Ho Ab E333_08L
B16: GpH7-B3 variant A327_09D/GpL16-k0 (antibody, human IgG1, kappa)
heavy: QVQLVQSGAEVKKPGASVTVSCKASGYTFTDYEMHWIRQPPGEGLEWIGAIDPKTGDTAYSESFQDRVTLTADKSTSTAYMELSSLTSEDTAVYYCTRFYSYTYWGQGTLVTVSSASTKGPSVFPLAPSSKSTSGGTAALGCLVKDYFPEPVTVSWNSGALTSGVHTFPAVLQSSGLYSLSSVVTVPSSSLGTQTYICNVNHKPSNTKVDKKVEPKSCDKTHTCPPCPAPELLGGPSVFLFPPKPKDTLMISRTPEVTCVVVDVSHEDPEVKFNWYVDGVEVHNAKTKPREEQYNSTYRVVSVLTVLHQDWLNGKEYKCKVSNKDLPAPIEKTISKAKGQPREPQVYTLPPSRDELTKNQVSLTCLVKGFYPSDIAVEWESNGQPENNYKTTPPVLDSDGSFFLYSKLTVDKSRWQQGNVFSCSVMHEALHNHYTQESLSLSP
light: DIVMTQSPLSLPVTPGEPASISCQASESLVHSNRNTYLHWYLQKPGQSPQLLIYKVSNRFSGVPDRFSGSGSGTDFTLKISRVEAEDVGVYYCSQNTHVPPTFGQGTKVEIERTVAAPSVFIFPPSDEQLKSGTASVVCLLNNFYPREAKVQWKVDNALQSGNSQESVTEQDSKDSTYSLSSTLTLSKADYEKHKVYACEVTHQGLSSPVTKSFNRGEC
notes: also called Ho Ab A327_09D
B17: GpH7-B3 variant E269_09D/GpL16-k0 (antibody, human IgG1, kappa)
heavy: not shown
light: DIVMTQSPLSLPVTPGEPASISCQASESLVHSNRNTYLHWYLQKPGQSPQLLIYKVSNRFSGVPDRFSGSGSGTDFTLKISRVEAEDVGVYYCSQNTHVPPTFGQGTKVEIERTVAAPSVFIFPPSDEQLKSGTASVVCLLNNFYPREAKVQWKVDNALQSGNSQESVTEQDSKDSTYSLSSTLTLSKADYEKHKVYACEVTHQGLSSPVTKSFNRGEC
notes: also called Ho Ab E269_09D
B18: GpH7-B3 variant A330_05P/GpL16-k0 (antibody, human IgG1, kappa)
heavy: not shown
light: DIVMTQSPLSLPVTPGEPASISCQASESLVHSNRNTYLHWYLQKPGQSPQLLIYKVSNRFSGVPDRFSGSGSGTDFTLKISRVEAEDVGVYYCSQNTHVPPTFGQGTKVEIERTVAAPSVFIFPPSDEQLKSGTASVVCLLNNFYPREAKVQWKVDNALQSGNSQESVTEQDSKDSTYSLSSTLTLSKADYEKHKVYACEVTHQGLSSPVTKSFNRGEC
notes: also called Ho Ab A330_05P
B19: GpH7-B3 variant E333_09D/GpL16-k0 (antibody, human IgG1, kappa)
heavy: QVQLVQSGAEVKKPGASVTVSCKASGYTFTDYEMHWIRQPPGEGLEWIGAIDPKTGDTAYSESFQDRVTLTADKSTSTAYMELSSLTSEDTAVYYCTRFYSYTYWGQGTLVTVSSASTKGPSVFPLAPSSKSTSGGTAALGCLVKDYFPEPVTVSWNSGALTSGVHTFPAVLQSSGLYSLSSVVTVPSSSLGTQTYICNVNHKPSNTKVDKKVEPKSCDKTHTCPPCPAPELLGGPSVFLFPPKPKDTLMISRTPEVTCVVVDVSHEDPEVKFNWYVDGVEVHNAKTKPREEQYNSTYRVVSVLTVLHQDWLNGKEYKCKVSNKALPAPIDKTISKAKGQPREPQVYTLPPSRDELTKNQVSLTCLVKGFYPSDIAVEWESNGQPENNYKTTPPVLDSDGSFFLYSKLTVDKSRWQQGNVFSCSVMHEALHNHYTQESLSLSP
light: DIVMTQSPLSLPVTPGEPASISCQASESLVHSNRNTYLHWYLQKPGQSPQLLIYKVSNRFSGVPDRFSGSGSGTDFTLKISRVEAEDVGVYYCSQNTHVPPTFGQGTKVEIERTVAAPSVFIFPPSDEQLKSGTASVVCLLNNFYPREAKVQWKVDNALQSGNSQESVTEQDSKDSTYSLSSTLTLSKADYEKHKVYACEVTHQGLSSPVTKSFNRGEC
notes: also called Ho Ab E333_09D
B20: GpH7-B3 variant G237_02A/GpL16-k0 (antibody, human IgG1, kappa)
heavy: not shown
light: DIVMTQSPLSLPVTPGEPASISCQASESLVHSNRNTYLHWYLQKPGQSPQLLIYKVSNRFSGVPDRFSGSGSGTDFTLKISRVEAEDVGVYYCSQNTHVPPTFGQGTKVEIERTVAAPSVFIFPPSDEQLKSGTASVVCLLNNFYPREAKVQWKVDNALQSGNSQESVTEQDSKDSTYSLSSTLTLSKADYEKHKVYACEVTHQGLSSPVTKSFNRGEC
notes: also called Ho Ab G237_02A

The test deals with T1, FcγRIIa R. Description: SPR (Biacore), captured antibody, FcγR as analyte; relative binding activity. The procedure: Analysis of interaction between objective antibody and the FcγR was carried out using Biacore T100 (GE Healthcare). HBS-EP+ (GE Healthcare) was used as the running buffer, and the measurement temperature was set to 25° C. Chips produced by immobilizing the antigen peptide by the amine coupling method to a Series S Sencor Chip CM5 (GE Healthcare), or alternatively, chips produced by allowing preliminarily biotinylated antigen peptides to interact with and immobilize onto a Series S Sensor Chip SA (certified) (GE Healthcare) were used. Antibodies of interest were captured onto an antigen peptide-immobilized chip, and allowed to interact to each FcγR diluted with running buffer. To regenerate and repeatedly use the chip, the antibodies captured on the chip were washed off by reacting 10 mM glycine-HCl, pH 1.5.
On to B1, for which the Ho/Con_2aR was 26.7 % (GpH7-B3/GpL16-k0 = 100). Under B2 stands 106 % (GpH7-B3/GpL16-k0 = 100); under B3, 92.4 % (GpH7-B3/GpL16-k0 = 100); under B4, 98.3 % (GpH7-B3/GpL16-k0 = 100).

Consider B5, for which the Ho/Con_2aR is 104 % (GpH7-B3/GpL16-k0 = 100). Next, B6: 96.2 % (GpH7-B3/GpL16-k0 = 100); B7: 113 % (GpH7-B3/GpL16-k0 = 100).

With B8, the Ho/Con_2aR was 55.3 % (GpH7-B3/GpL16-k0 = 100). Under B9 stands 99.1 % (GpH7-B3/GpL16-k0 = 100). Under B10 stands 80 % (GpH7-B3/GpL16-k0 = 100); under B11, 106 % (GpH7-B3/GpL16-k0 = 100); under B12, 87.5 % (GpH7-B3/GpL16-k0 = 100).

Turning to B13, the Ho/Con_2aR is 99.9 % (GpH7-B3/GpL16-k0 = 100). As to B14, the Ho/Con_2aR was 101 % (GpH7-B3/GpL16-k0 = 100). Regarding B15, the Ho/Con_2aR was 97.1 % (GpH7-B3/GpL16-k0 = 100). Under B16 stands 120 % (GpH7-B3/GpL16-k0 = 100).

B17: the Ho/Con_2aR was 103 % (GpH7-B3/GpL16-k0 = 100). Consider B18, for which the Ho/Con_2aR is 36.2 % (GpH7-B3/GpL16-k0 = 100). Under B19 stands 96.5 % (GpH7-B3/GpL16-k0 = 100); under B20, 84 % (GpH7-B3/GpL16-k0 = 100).

The record behind these values is patent US20150344570A1 (published 2015).
